Results published in paper PMC3652857, “A Cryptic Targeting Signal Creates a Mitochondrial FEN1 Isoform with Tailed R-Loop Binding Properties”.

Experiments:
FENMIT [1] = molecular target: T1, FENMIT (human, UniProt P39748-2 1-316); experiment: EMSA; 1-50 nM FENMIT; 25 mM Tris pH 8.0, 1 mM DTT, 0.1 mg/ml BSA, 6% glycerol; 0.2 nM 32P substrate; 1 h on ice; 10% native PAGE in tris-borate; conditions: protein: recombinant; tags: His; label: 5'-32P; single strand
FENMIT [2] = molecular target: T1, FENMIT; experiment: competition; 25 nM FENMIT; cold RNA44 0-5 nM; 25 mM Tris pH 8.0, 1 mM DTT, 0.1 mg/ml BSA, 6% glycerol; 0.2 nM 32P substrate; 1 h on ice; 10% native PAGE in tris-borate; conditions: protein: recombinant; tags: His; label: 5'-32P on RNA44; equilibrating full 5' RNA flap, 1 nt 3' DNA flap
FENMIT [3] = molecular target: T1, FENMIT; experiment: EMSA; 1-50 nM FENMIT; equal to short 3' flap; 25 mM Tris pH 8.0, 1 mM DTT, 0.1 mg/ml BSA, 6% glycerol; 0.2 nM 32P substrate; 1 h on ice; 10% native PAGE in tris-borate; conditions: protein: recombinant; tags: His; label: 5'-32P on RNA44; 5' RNA flap with 20 nt 3' DNA flap
FENMIT [4] = molecular target: T1, FENMIT; experiment: EMSA; 25 mM Tris pH 8.0, 1 mM DTT, 0.1 mg/ml BSA, 6% glycerol; 0.2 nM 32P substrate; 1 h on ice; 10% native PAGE in tris-borate; conditions: protein: recombinant, tags: His
FEN1 (FEN1-1.His) = FEN1 (FEN1-1.His) (human, UniProt P39748 1-380); experiment: as above; conditions: protein: recombinant; tags: His; label: 5'-32P on 19DNA; equilibrating double flap: 19 nt 5' DNA flap, 1 nt 3' flap
FEN1 D181A = FEN1 D181A (human, UniProt P39748 1-380, D181A); experiment: as above; conditions: protein: recombinant; tags: His; label: 5'-32P on 19DNA; equilibrating double flap: 19 nt 5' DNA flap, 1 nt 3' flap
FEN1 D181A, sequence (P39748 whole entry D181A): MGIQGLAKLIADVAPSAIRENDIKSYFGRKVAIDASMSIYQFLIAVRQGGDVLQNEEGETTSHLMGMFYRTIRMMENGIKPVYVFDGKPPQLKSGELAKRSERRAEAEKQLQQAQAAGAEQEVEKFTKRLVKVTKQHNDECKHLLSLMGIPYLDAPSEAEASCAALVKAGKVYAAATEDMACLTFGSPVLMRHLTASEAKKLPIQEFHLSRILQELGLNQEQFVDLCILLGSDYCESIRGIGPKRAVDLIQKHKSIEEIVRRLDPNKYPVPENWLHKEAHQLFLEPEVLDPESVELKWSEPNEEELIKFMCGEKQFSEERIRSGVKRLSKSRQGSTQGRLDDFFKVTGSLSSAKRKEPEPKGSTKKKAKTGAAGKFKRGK

T1 sequence (P39748 65-380): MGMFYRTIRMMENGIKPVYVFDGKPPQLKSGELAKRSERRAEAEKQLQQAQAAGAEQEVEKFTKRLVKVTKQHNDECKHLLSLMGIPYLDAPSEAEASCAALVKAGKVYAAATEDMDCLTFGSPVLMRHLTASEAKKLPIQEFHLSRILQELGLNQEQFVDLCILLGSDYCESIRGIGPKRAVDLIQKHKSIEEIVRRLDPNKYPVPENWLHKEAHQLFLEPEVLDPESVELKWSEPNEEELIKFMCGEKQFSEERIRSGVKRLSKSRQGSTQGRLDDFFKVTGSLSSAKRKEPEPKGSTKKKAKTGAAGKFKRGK
FEN1 (FEN1-1.His), sequence (P39748 whole entry): as the sequence (P39748 whole entry D181A) above, with A181D counted along it

B1: RNA44 ssRNA (ssRNA)
RNA: UCAACGUGGGCAAAGAAUGUCCUACGUCCGAUACGGAUAAUCGC
- binding signal (FENMIT [1]): 3 fold lower affinity than RNA flap substrates

B2: T2:U2:RNA44* 5' RNA flap (mixed)
DNA 1: GCGATTATCCGTATCGGACGTAGGAAGCCTGCCATTTGATGGTC
DNA 2: GACCATCAAATGGCAGGCTG
RNA: UCAACGUGGGCAAAGAAUGUCCUACGUCCGAUACGGAUAAUCGC
- binding signal (FENMIT [2]): 3 fold more cold RNA44 for half competition than labeled ssRNA needs

B3: U3:T2:RNA44* 5' RNA flap with 20 nt 3' flap (mixed)
DNA 1: GCGATTATCCGTATCGGACGTAGGAAGCCTGCCATTTGATGGTC
DNA 2: GACCATCAAATGGCAGGCTGAACGAACAAAGCGAAAGCG
RNA: UCAACGUGGGCAAAGAAUGUCCUACGUCCGAUACGGAUAAUCGC
- binding result (FENMIT [3]): binds

B4: T6:D1:RNA44* R-loop (mixed)
DNA 1: CTGCGTCGGCTTAAGATGGTGCGATTATCCGTATCGGACGTAGGACATTCTTTGCCCACGTTGATGGGTAGATAGCCTAACCGG
DNA 2: CCGGTTAGGCTATCTACCCATAAGTTTATTCCCTGCTCTTAGCAGATGGAGTCTGTGAACTGCAATCAATACCATCTTAAGCCGACGCAG
RNA: UCAACGUGGGCAAAGAAUGUCCUACGUCCGAUACGGAUAAUCGC
- binding result (FENMIT [4]; label: 5'-32P on RNA44, R-loop without RNA flap): binds

B5: T1:U1:19DNA* equilibrating 5' DNA flap (structured_DNA)
DNA 1: GTCGACCTGCAGCCCAAGCTTGCGTTGCTG
DNA 2: CAGCAACGCAAGCTTGC
DNA 3: ATGTGGAAAATCTCTAGCAGGCTGCAGGTCGAC
- binding result (FEN1 (FEN1-1.His)): binds
- binding result (FEN1 D181A): binds
- binding result (FENMIT [4]; label: 5'-32P on 19DNA, equilibrating double flap: 19 nt 5' DNA flap, 1 nt 3' flap): no binding
